Data as given in paper PMC7949164.

Molecular target: T1, myc-tagged mouse Ccr1 Y18F mutant (mouse) (UniProt P51675)
T1 sequence: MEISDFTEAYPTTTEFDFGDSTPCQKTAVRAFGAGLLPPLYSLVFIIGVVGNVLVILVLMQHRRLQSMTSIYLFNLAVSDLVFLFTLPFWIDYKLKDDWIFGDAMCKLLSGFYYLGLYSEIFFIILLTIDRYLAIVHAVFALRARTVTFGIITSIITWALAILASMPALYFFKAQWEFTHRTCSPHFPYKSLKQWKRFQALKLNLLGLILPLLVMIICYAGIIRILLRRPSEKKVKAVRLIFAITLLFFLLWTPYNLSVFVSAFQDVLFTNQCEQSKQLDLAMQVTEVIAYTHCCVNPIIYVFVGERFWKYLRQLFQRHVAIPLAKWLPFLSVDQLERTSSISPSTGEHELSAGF

Molecule: recombinant mouse Ccl9/10 (ligand)
- internalisation: cell surface receptor left (MFI in % of buffer alone) after 100 nM chemokine, FACS, L1.2 cells (% cell surface receptor): 20

B1: recombinant mouse Ccl3 (ligand)
chain: APYGADTPTACCFSYSRKIPRQFIVDYFETSSLCSQPGVIFLTKRNRQICADSKETWVQEYITDLELNA
- internalisation: cell surface receptor left (MFI in % of buffer alone) after 100 nM chemokine, FACS, L1.2 cells (% cell surface receptor): 35
